Measured values from the Immune Epitope Database (IEDB).

Experiments:
Assay in all cases: IEDB peptide-MHC binding, purified MHC/competitive/radioactivity; filed as Kd, often an IC50 or EC50 that approximates it; ≥ and ≤ were set here for values at or beyond the usual limits of such assays
HLA-A*11:01 = biological target: HLA-A*11:01
HLA-A*31:01 = biological target: HLA-A*31:01
HLA-A*68:01 = biological target: HLA-A*68:01
HLA-A*33:01 = biological target: HLA-A*33:01
HLA-A*03:01 = biological target: HLA-A*03:01
HLA-A*02:02 = biological target: HLA-A*02:02
HLA-A*02:03 = biological target: HLA-A*02:03
HLA-A*02:06 = biological target: HLA-A*02:06
[1] = source organism: Vaccinia virus WR
[2] = source organism: Lymphocytic choriomeningitis virus (strain Armstrong)
[3] = source organism: SARS coronavirus Tor2
[4] = source organism: Mammarenavirus machupoense
[5] = source organism: Mammarenavirus lassaense
[6] = source organism: Mammarenavirus juninense

RASTTENAAY
Kd (HLA-A*11:01; [1]): 0.564 µM
Kd (HLA-A*31:01; [1]): 2.09 µM
Kd (HLA-A*68:01; [1]): 4.63 µM
Kd (HLA-A*33:01; [1]): ≥ 70 µM
Kd (HLA-A*03:01; [1]): 13.4 µM

RCHDHYLCRH
Kd (HLA-A*11:01; [2]): ≥ 69.7 µM
Kd (HLA-A*31:01; [2]): 14.4 µM
Kd (HLA-A*68:01; [2]): ≥ 70.1 µM
Kd (HLA-A*33:01; [2]): ≥ 70 µM
Kd (HLA-A*03:01; [2]): ≥ 46.8 µM

RFVEELLHR
Kd (HLA-A*11:01; [1]): 3.45 µM
Kd (HLA-A*31:01; [1]): 0.0197 µM
Kd (HLA-A*68:01; [1]): 0.227 µM
Kd (HLA-A*33:01; [1]): 0.686 µM
Kd (HLA-A*03:01; [1]): 2.18 µM

RLEVIGLTT
Kd (HLA-A*02:02; [1]): ≥ 20 µM
Kd (HLA-A*02:03; [1]): 13.9 µM
Kd (HLA-A*02:06; [1]): ≥ 49.8 µM

RLRQDTEDIV
Kd (HLA-A*02:02; [1]): 0.134 µM
Kd (HLA-A*02:03; [1]): 0.284 µM
Kd (HLA-A*02:06; [1]): 7.49 µM

RSKQKIGDLR
Kd (HLA-A*11:01; [1]): 14 µM
Kd (HLA-A*31:01; [1]): 0.0483 µM
Kd (HLA-A*68:01; [1]): 1.3 µM
Kd (HLA-A*33:01; [1]): 12.7 µM
Kd (HLA-A*03:01; [1]): 3.83 µM

RTWKVLSIM
Kd (HLA-A*02:02; [1]): 19.1 µM
Kd (HLA-A*02:03; [1]): 2.63 µM
Kd (HLA-A*02:06; [1]): ≥ 34 µM

RVLYDEFVT
Kd (HLA-A*02:02; [1]): 2.17 µM
Kd (HLA-A*02:03; [1]): 1.41 µM
Kd (HLA-A*02:06; [1]): 1.72 µM

RVPRNLTLSK
Kd (HLA-A*11:01; [3]): 0.00833 µM
Kd (HLA-A*31:01; [3]): 0.767 µM
Kd (HLA-A*68:01; [3]): 2.1 µM
Kd (HLA-A*33:01; [3]): ≥ 70 µM
Kd (HLA-A*03:01; [3]): 0.0124 µM

SALMTLDDLA
Kd (HLA-A*02:02; [1]): 0.21 µM
Kd (HLA-A*02:03; [1]): 2.32 µM
Kd (HLA-A*02:06; [1]): 0.193 µM

SFKLILAEY
Kd (HLA-A*11:01; [1]): 13.5 µM
Kd (HLA-A*31:01; [1]): 0.681 µM
Kd (HLA-A*68:01; [1]): ≥ 26 µM
Kd (HLA-A*33:01; [1]): 11.7 µM
Kd (HLA-A*03:01; [1]): ≥ 76.9 µM

SILSLETVK
Kd (HLA-A*11:01; [1]): 0.00415 µM
Kd (HLA-A*31:01; [1]): 2.61 µM
Kd (HLA-A*68:01; [1]): 0.515 µM
Kd (HLA-A*33:01; [1]): 18.5 µM
Kd (HLA-A*03:01; [1]): 0.0249 µM

SLPSYAAYA
Kd (HLA-A*02:02; [3]): 0.00668 µM
Kd (HLA-A*02:03; [3]): 0.00256 µM
Kd (HLA-A*02:06; [3]): 0.00872 µM

SMQGAVDINR
Kd (HLA-A*11:01; [3]): 1.16 µM
Kd (HLA-A*31:01; [3]): 0.188 µM
Kd (HLA-A*68:01; [3]): 0.142 µM
Kd (HLA-A*33:01; [3]): 0.47 µM
Kd (HLA-A*03:01; [3]): 2.29 µM

SMSQELAEL
Kd (HLA-A*02:02; [1]): 0.00398 µM
Kd (HLA-A*02:03; [1]): 0.00766 µM
Kd (HLA-A*02:06; [1]): 0.186 µM

SSSVDVDIY
Kd (HLA-A*11:01; [1]): ≥ 43.7 µM
Kd (HLA-A*31:01; [1]): 2.73 µM
Kd (HLA-A*68:01; [1]): 2.95 µM
Kd (HLA-A*33:01; [1]): ≥ 72.7 µM
Kd (HLA-A*03:01; [1]): ≥ 65.3 µM

SSTCSAVTDR
Kd (HLA-A*11:01; [1]): 0.173 µM
Kd (HLA-A*31:01; [1]): 0.123 µM
Kd (HLA-A*68:01; [1]): 0.0874 µM
Kd (HLA-A*33:01; [1]): 0.708 µM
Kd (HLA-A*03:01; [1]): 11.4 µM

STIANSNIIK
Kd (HLA-A*11:01; [1]): 0.000545 µM
Kd (HLA-A*31:01; [1]): 1.13 µM
Kd (HLA-A*68:01; [1]): 0.0161 µM
Kd (HLA-A*33:01; [1]): 19.5 µM
Kd (HLA-A*03:01; [1]): 0.251 µM

STKADAVVA
Kd (HLA-A*02:02; [1]): 8.19 µM
Kd (HLA-A*02:03; [1]): 4.95 µM
Kd (HLA-A*02:06; [1]): 16.2 µM

SVKYYGRST
Kd (HLA-A*02:02; [1]): 6.79 µM
Kd (HLA-A*02:03; [1]): 1.16 µM
Kd (HLA-A*02:06; [1]): 19.4 µM

TAKVIKLVK
Kd (HLA-A*11:01; [1]): 0.985 µM
Kd (HLA-A*31:01; [1]): 19.9 µM
Kd (HLA-A*68:01; [1]): 4.91 µM
Kd (HLA-A*33:01; [1]): ≥ 77.7 µM
Kd (HLA-A*03:01; [1]): ≥ 52.3 µM

TAVAKCNQNH
Kd (HLA-A*11:01; [4]): ≥ 69.7 µM
Kd (HLA-A*31:01; [4]): ≥ 70 µM
Kd (HLA-A*68:01; [4]): ≥ 70.1 µM
Kd (HLA-A*33:01; [4]): ≥ 68.8 µM
Kd (HLA-A*03:01; [4]): ≥ 70 µM

TISWMMKLGI
Kd (HLA-A*02:02; [1]): 7.84 µM
Kd (HLA-A*02:03; [1]): 0.972 µM
Kd (HLA-A*02:06; [1]): 2.78 µM

TYLGPQFCK
Kd (HLA-A*11:01; [5]): 0.0133 µM
Kd (HLA-A*31:01; [5]): 5.08 µM
Kd (HLA-A*68:01; [5]): 0.0323 µM
Kd (HLA-A*33:01; [5]): 0.31 µM
Kd (HLA-A*03:01; [5]): 0.156 µM

VFGSTMNNK
Kd (HLA-A*11:01; [3]): 2.51 µM
Kd (HLA-A*31:01; [3]): 2.63 µM
Kd (HLA-A*68:01; [3]): 4.46 µM
Kd (HLA-A*33:01; [3]): ≥ 43.7 µM
Kd (HLA-A*03:01; [3]): 4.34 µM

VIENGILKK
Kd (HLA-A*11:01; [1]): 0.0296 µM
Kd (HLA-A*31:01; [1]): 12.9 µM
Kd (HLA-A*68:01; [1]): 1.83 µM
Kd (HLA-A*33:01; [1]): ≥ 77.7 µM
Kd (HLA-A*03:01; [1]): 0.438 µM

VIRLLIWAY
Kd (HLA-A*11:01; [1]): 1.93 µM
Kd (HLA-A*31:01; [1]): 1.22 µM
Kd (HLA-A*68:01; [1]): 5.93 µM
Kd (HLA-A*33:01; [1]): 12.4 µM
Kd (HLA-A*03:01; [1]): 12.9 µM

VMNFIPIIY
Kd (HLA-A*11:01; [1]): 0.0605 µM
Kd (HLA-A*31:01; [1]): ≥ 20.9 µM
Kd (HLA-A*68:01; [1]): 8.85 µM
Kd (HLA-A*33:01; [1]): ≥ 77.7 µM
Kd (HLA-A*03:01; [1]): 0.0587 µM

VSLVKKNKKR
Kd (HLA-A*11:01; [1]): 6.45 µM
Kd (HLA-A*31:01; [1]): 0.324 µM
Kd (HLA-A*68:01; [1]): ≥ 47.8 µM
Kd (HLA-A*33:01; [1]): 6.89 µM
Kd (HLA-A*03:01; [1]): ≥ 30.5 µM

VVIGLLFMI
Kd (HLA-A*02:06; source organism: Dengue virus 1 Brazil/97-11/1997): 0.00561 µM

YAKKFKTGMH
Kd (HLA-A*11:01; [6]): ≥ 69.7 µM
Kd (HLA-A*31:01; [6]): ≥ 28.2 µM
Kd (HLA-A*68:01; [6]): ≥ 70.1 µM
Kd (HLA-A*33:01; [6]): ≥ 29.2 µM
Kd (HLA-A*03:01; [6]): ≥ 70 µM

YLINPNILY
Kd (HLA-A*11:01; [1]): 0.376 µM
Kd (HLA-A*31:01; [1]): ≥ 77.9 µM
Kd (HLA-A*68:01; [1]): 3.24 µM
Kd (HLA-A*33:01; [1]): ≥ 45.1 µM
Kd (HLA-A*03:01; [1]): 1.52 µM

YLLVKWIRK
Kd (HLA-A*11:01; [1]): 0.084 µM
Kd (HLA-A*31:01; [1]): 0.285 µM
Kd (HLA-A*68:01; [1]): ≥ 35.2 µM
Kd (HLA-A*33:01; [1]): 5.2 µM
Kd (HLA-A*03:01; [1]): 0.0075 µM

YSRVNHAKY
Kd (HLA-A*11:01; [1]): ≥ 42.2 µM
Kd (HLA-A*31:01; [1]): ≥ 73.7 µM
Kd (HLA-A*68:01; [1]): 1.19 µM
Kd (HLA-A*33:01; [1]): ≥ 77.7 µM
Kd (HLA-A*03:01; [1]): 1.53 µM

YTNEIIGYK
Kd (HLA-A*11:01; [3]): 0.00256 µM
Kd (HLA-A*31:01; [3]): 0.937 µM
Kd (HLA-A*68:01; [3]): 0.00224 µM
Kd (HLA-A*33:01; [3]): 0.414 µM
Kd (HLA-A*03:01; [3]): 0.00497 µM

YTYDRVDIY
Kd (HLA-A*11:01; [1]): 0.000341 µM
Kd (HLA-A*31:01; [1]): 9.37 µM
Kd (HLA-A*68:01; [1]): 0.00191 µM
Kd (HLA-A*33:01; [1]): ≥ 36.6 µM
Kd (HLA-A*03:01; [1]): 0.741 µM
